The text below walks through data of patent publication US7144731B2, “SCF antibody compositions and methods of using the same” (Amgen Inc., priority 1989, dated 2006).

The assay has as its system Steel-Dickie (S1/S1^d) mice. Put plainly: In vivo activity in Steel-Dickie mice. Further details: species or system mouse. The note with it: 100 μg/kg/day 30 days then 30 μg/kg/day 20 days, s.c. As to the method: Steel mice provide a sensitive in vivo model for SCF activity. Different recombinant SCF proteins were tested in Steel-Dickie (S1/S1^d) mice for varying lengths of time. Six to ten week old Steel mice (WCB6F1-S1/S1^d) were purchased from Jackson Labs, Bar Harbor, Me. Peripheral blood was monitored by a SYSMEX F-800 microcell counter (Baxter, Irvine, Calif.) for red cells, hemoglobin, and platelets. For enumeration of peripheral white blood cell (WBC) numbers, a Coulter Channelyzer 256 (Coulter Electronics, Marietta, Ga.) was used.
In the experiment in FIG. 24, Steel-Dickie mice were treated with E. coli derived SCF^1-164, purified as in Example 10, at a dose of 100 μg/kg/day for 30 days, then at a dose of 30 μg/kg/day for an additional 20 days. The protein was formulated in injectable saline (Abbott Labs, North Chicago, Ill.) +0.1% fetal bovine serum. The injections were performed daily, subcutaneously. The peripheral blood was monitored via tail bleeds of ˜50 μl at the indicated times in FIG. 24. The blood was collected into 3% EDTA coated syringes and dispensed into powdered EDTA microfuge tubes (Brinkmann, Westbury, N.Y.). […]
Whole blood was stained for T lymphocyte subsets as follows. […] Each sample of blood was then analyzed on a FACScan cell analysis system (Becton Dickinson, Mountain View, Calif.). […]

B1: rrSCF^1-164: recombinant rat SCF^1-164 from E. coli, also used ^125I-labelled (protein)
chain: QEICRNPVTDNVKDITKLVANLPNDYMITLNYVAGMDVLPSHCWLRDMVTHLSVSLTTLLDKFSNISEGLSNYSIIDKLGKIVDDLVACMEENAPKNVKESLKKPETRNFTPEEFFSIFNRSIDAFKDFMVASDTSDCVLSSTLGPEKDSRVSVTKPFMLPPVA
On to B1, for which the “macrocytic anemia (hematocrit, mean red cell volume)” value is “significant correction of the macrocytic anemia”.
